B1: WNb 2 (VHH)
VHH: QVQLQESGGGLVQPGGSLRLSCAVSGFTLDYYAIGWFRQAPGKEREGVSCISSSGGNTKYADSVKGRFTASRDNAKNTFYLQMNSLKPEDTAVYYCAAIAATYYSGSYYFQCPHDGMDYWGKGTQVTVSS
notes: source: expressed and purified
B2: WNb 36 (VHH)
VHH: B1 VHH with S53N, A70T, R72V, K76Q, F79V, Q82L, K87E, S107T, F110Y, D115Y
B3: WNb 7 (VHH)
VHH: QVQLQESGGGLVQPGGSLRLSCAAPGFTFSSYAMGWFRQVPGKGLEWVSGIYSDGSTYYADSVKGRFTISRDNAKNTVYLQMNSLKPEDTAVYYCAKDRLEGSSWPERDFGSWGQGTQVTVSS
B4: WNb 15 (VHH)
VHH: B3 VHH with P25S, A33L, S56G, K97T, L100M
B5: WNb 19 (VHH)
VHH: QVQLQESGGGLVQPGGSLRLSCAASGSMFSINVMGWYRQASGKQRELVAGITRDGATNYSDSVKGRFTISGDNAKNTVYLQMNSLKPEDTAVYYCNTNVDSVWGSRIDYFGQGTQVTVSS
B6: WNb 53 (VHH)
VHH: B3 VHH with P25S, A33L, F37A, S49A, T68I, L100M, G102D, S104T
B7: WNb 50 (VHH)
VHH: B3 VHH with P25S, K97A, L100M, E101A, S104R
B8: WNb 21 (VHH)
VHH: QVQLQESGGGLVQAGGSLTLTCAASERTFGRYVLAWFRQAPGKERELVARISRSTGSTFHADFVLGRFTISRDNAKNTVYLTMNNLKPEDTAVYYCAADKDGGLEYDYWGQGTQVTVSS
notes: as for B1
B9: WNb 23 (VHH)
VHH: QVQLQESGGGLVQPGGSLRLSCAASGFTFKDYAMAWARQVPGKGLEWVSGIYSDGNTYYADSVKGRFTISRDNAKNTVYLRMNSLKPEDTAVYYCATERHPQGAADFGSWGQGTQVTVSS
notes: as for B1

Positions count from the first letter of the chain named.

In one assay the target is T1, SARS-CoV-2 receptor-binding domain (RBD), wild type (SARS-CoV-2, UniProt P0DTC2, DyLight 488 (NHS ester, about 1.9 dye/protein) in the FRET assay only). In words: BLI. The settings on record: both partners purified.
In general, Kd refers to the constant that tells how readily two partners part at equilibrium. A higher Kd goes with lower affinity. As for B1, the Kd is under 0.5 nM.

B2 displayed a dissociation constant Kd of under 0.5 nM. Still for that read-out and setting: the value for B3 was under 0.5 nM. Turning to B4, the Kd is under 0.5 nM.

Another assay deals with T1, SARS-CoV-2 receptor-binding domain …. In words: cell-based or functional assay.
Settings: not given
On to B5, for which the other was at most 80 nM.

For B6, the other was at most 80 nM. As to B7, the other was at most 80 nM.

In the next assay the target is T2, SARS-CoV receptor-binding domain (RBD) (SARS-CoV, UniProt P59594).
T2 construct: source: recombinant, purified
Kind of assay: ELISA. The settings on record: both partners purified. On the technique in general: ELISA stands for enzyme-linked immunosorbent assay.
As for B8, the binding result is recorded as “binds”.

Turning to B9, the binding result was “binds”.

These data come from publication PMC8126837 (Proceedings of the National Academy of Sciences of the …, 2021).
